Experimental data reported in patent US10624968B2, “Compounds for treating cancer” (Bicycle Therapeutics Limited, priority 2017, dated 2020).
Like-named read-outs stand apart in the source and are kept apart here. Starred links: 1 amine or outer side, 2 acyl side, 3 side chain; linkers in the order of their positions; H or OH if unused. Positions of bridges follow the written chain, without caps; N, C: chain ends. Non-standard residues stand in square brackets, D forms with d. Residues, ends and D or L forms follow the SMILES beside them. Chains are numbered I, II in the order given. ξ: configuration not given here. *: point of attachment. Dolaproine = CO[C@@H]([C@@H]1CCCN1)[C@@H](C)C(=O)O; Dil = CC[C@H](C)[C@H](NC)[C@@H](CC(=O)O)OC; TBMB = c1c(C[*:1])cc(C[*:3])cc1C[*:2]; X2 = O=C(CCCC(=O)[*:2])NCCC(=O)[*:1]; PABC = O=C(OCc1ccc(N[*:1])cc1)[*:2]; X1 = C[C@@H](N*)[C@@H](O)c1ccccc1; ξ1Nal = NC(Cc1cccc2ccccc12)C(=O)O; Cit = NC(=O)NCCC[C@H](N)C(=O)O; NMeV = CN[C@H](C(=O)O)C(C)C; ξY = NC(Cc1ccc(O)cc1)C(=O)O; ξTle = CC(C)(C)C(N)C(=O)O; ξF = NC(Cc1ccccc1)C(=O)O; ξE = NC(CCC(=O)O)C(=O)O; ξD = NC(CC(=O)O)C(=O)O; ξN = NC(=O)CC(N)C(=O)O; ξC = NC(CS)C(=O)O; ξA = CC(N)C(=O)O; Sar = CNCC(=O)O

How the values were obtained:
[1] = Body weight of mice bearing EBC-1 xenograft (indirect measure of toxicity); assay type: in vivo, mouse
Experimental: (§1) All the procedures related to animal handling, care and the treatment in the study were performed according to the guidelines of the Association for Assessment and Accreditation of Laboratory Animal Care (AAALAC). At the time of routine monitoring, the animals were daily checked for any effects of tumor growth and treatments on normal behavior such as mobility, food and water consumption (by looking only), body weight gain/loss (body weights were measured every day), eye/hair matting and any other abnormal effect as stated in the protocol. Death and observed clinical signs were recorded on the basis of the numbers of animals within each subset.
Animal body weight was monitored regularly as an indirect measure of toxicity.

HT1080 cells = experiment: Cytotoxicity in HT1080 cells in presence and absence of 1 mM bacitracin (ATPlite, 24 hour exposure)
Experimental: HT1080 cells (ATCC, via LGC, BIC918) Maintained in EMEM media (Sigma M2279)+10% FBS (Sigma Code F7524)+4 mM L-Glu (Invitrogen Cat 25030-024)
I-1a and Toxins with Bacitracin—24 or 72 Hour Exposure in 96 Well Plates
DB seeded cells in normal media, 75 μL in 96 well clear plates, ˜24 hours previous.
HT1080—7.5 k cells/well: 50% confluent upon dosing.
Dilute in media 1:42.85=5 μL DMSO dilute+209 μL media=>use 15 μL per well
This gives a 5 μM top concentration for BDCs in assay
Add 10 µL of media±bacitracin (2 plates of each)−leave for 1 hr
(§2) Bacitracin=1 mM final concentration. This requires a 10 mM concentration with no DMSO.
Add 15 μL treatment per well as in Table 19, below.
Seal plates with gas permeable membrane and incubate at 37° C.
Washout HT1080 plates with 2×150 μL PBS at 24 h and add 100 μL fresh media
At t=72 h, equilibrate ATPlite reagent to room temperature. Add 10 ml buffer to each vial of lyophilized substrate. Add 100 μL reagent per well. Seal with PCR seal and cover to protect from light. Shake for 20 mins before reading luminescence

L540 cells = experiment: Cytotoxicity in L540 cells in presence and absence of 1 mM bacitracin (ATPlite, 72 hour exposure); assay type: cell-based
Experimental: L540 cells (DSMZ # ACC72, BIC5121), maintained in RPMI-1640 medium (Sigma # R8758)+20% heat-inactivated serum
L540—20 k cells/well: 40% confluent upon dosing.
as §2
Add 100 μL reagent per well. […] Shake for 20 mins before reading luminescence

[2] = Plasma stability (LC-MS/MS assay), mouse plasma, with and without AEBSF; assay type: in vitro ADME
Experimental: I-1a plasma stability studies were conducted in human and mouse plasma.
In vitro plasma stability assay measures the extent of degradation of compounds in plasma.
Peptides or BDCs are incubated at 37° C. in plasma (mouse or human) at low micromolar concentrations for several hours. The stability is quantitatively measured by LC-MS/MS.
Add 8 μL of the 160 μM DMSO stock of peptide or BDC and add 8 μL of 160 μM DMSO stock of 06-34-18-N182 as internal standard to 304 μL of plasma (152 μL*2) for a final concentration of 4 μM (5% DMSO).
Incubate at 37° C. in 100% humidity.
Pipette out 40 μL for 7 timepoints: time 0, 1 h, 2 h, 4 h, 6 h, 8 h, 24 h into a 1.5 mL Eppendorf. Store at −80° C. immediately. (total volume of samples?×40=280 μL).
Add to the sample the extraction solvent. The extraction solvent contains 1 part of water, 3 parts of methanol, and 3 parts of acetonitrile.
To the time course samples add 120 μL of extraction solvent, mix thoroughly with pipette and gently vortex.
Centrifuge for 40 minutes at 14000 rpm at 4° C.
Transfer the supernatant to the LC-MS vials and run the experiment immediately afterwards.
It is recommend to follow one transition for the peptide of BDCs to study, and one transition for the internal standard 06-34-18-N182 at the same time. The most relevant Selected Ion Reaction (SIR) and Multiple Reaction Monitoring (MRM) transitions were determined for each peptide or BDC.
The analysis of the data has been performed using “QuanLynks” and “Sigmaplot” software.
For the studies depicted in FIGS. 1-3, the following conditions were used.
Column: Waters ACQUITY CSH Phenyl-Hexyl 1.7 μm 2.1×50 mm
Mobile Phase: […] ammonium bicarbonate in water; B=5 mM ammonium bicarbonate 10% water in acetonitrile.
Gradient: 5 to 60% B in 4 minutes at 0.6 mL/min flow.
To test the hypothesis that plasma instability in mouse was due to Ces1c, I-1a was incubated in mouse plasma both in the presence and absence of AEBSF,
Additionally, formation of the MMAE metabolite in mouse plasma (release of the toxin) was monitored both in the presence and absence of AEBSF.

[3] = Body weight in HT1080 xenograft model (Example 7); assay type: in vivo; details: any of the doses tested (1, 3, and 10 mg/kg)
Experimental: I-1a was evaluated in a HT1080 xenograft model at 1, 3, and 10 mg/kg. Additionally the ability of the binding peptide (the Bicycle+Spacer of I-1a, structure shown in Example 6) to abrogate activity when dosed at a 100-fold excess immediately before treatment with I-1a in the HT1080 xenograft model was assessed.

[4] = Tolerability (body weight) in LU-01-0486 NSCLC PDX model; assay type: in vivo, mouse
Experimental: as §1, with “following” for “according to”, “guidance” for “guidelines”, “twice weekly),” for “every day),”

For `CC[C@H](C)[C@@H]([C@@H](CC(=O)N1CCC[C@H]1[C@H](OC)[C@@H](C)C(=O)N[C@H](C)[C@@H](O)c1ccccc1)OC)N(C)C(=O)[C@@H](NC(=O)[C@H](C(C)C)N(C)C(=O)OCc1ccc(NC(=O)[C@H](CCCNC(N)=O)NC(=O)[C@@H](NC(=O)CCCC(=O)NCCC(=O)N(C)CC(=O)N(C)CC(=O)N(C)CC(=O)N(C)CC(=O)N(C)CC(=O)N(C)CC(=O)N(C)CC(=O)N(C)CC(=O)N(C)CC(=O)N(C)CC(=O)NC(C)C(=O)NC2CSCc3cc4cc(c3)CSCC(NC(=O)C(C)NC(=O)C(Cc3cccc5ccccc35)NC(=O)C(CCC(=O)O)NC(=O)C(CC(N)=O)NC(=O)C(C)NC2=O)C(=O)NC(CCC(=O)O)C(=O)NC(CC(=O)O)C(=O)NC(Cc2ccccc2)C(=O)NC(Cc2ccc(O)cc2)C(=O)NC(CC(=O)O)C(=O)NC(C(C)(C)C)C(=O)NC(C(N)=O)CSC4)C(C)C)cc1)C(C)C` (some centres unmarked) [Compound I-1a] (I: [Sar][Sar][Sar][Sar][Sar][Sar][Sar][Sar][Sar][Sar][ξA][ξC][ξA][ξN][ξE][ξ1Nal][ξA][ξC][ξE][ξD][ξF][ξY][ξD][ξTle][ξC]-NH2 / II: V[Cit][PABC][NMeV]V[Dil][Dolaproine]-X1; linker I:12-I:18-I:25 via TBMB; linker I:N-II:N via X2), the “Body Weight” value ([1]; 1 mg/kg i.v. tiw x2 w, day 0) was 23.4 g, the “Body Weight” value ([1]; 1 mg/kg i.v. tiw x2 w, day 2) was 23.3 g and the “Body Weight” value ([1]; 1 mg/kg i.v. tiw x2 w, day 4) was 23.6 g. The “Body Weight” value ([1]; 1 mg/kg i.v. tiw x2 w, day 7) was 23.8 g, the “Body Weight” value ([1]; 1 mg/kg i.v. tiw x2 w, day 9) was 24.0 g and the “Body Weight” value ([1]; 1 mg/kg i.v. tiw x2 w, day 11) was 24.0 g. For the same molecule, the “Body Weight” value ([1]; 1 mg/kg i.v. tiw x2 w, day 14) was 23.8 g, the “Body Weight” value ([1]; 3 mg/kg i.v. tiw x2 w, day 0) was 21.9 g and the “Body Weight” value ([1]; 3 mg/kg i.v. tiw x2 w, day 2) was 21.4 g. For the same molecule, the “Body Weight” value ([1]; 3 mg/kg i.v. tiw x2 w, day 4) was 21.7 g, the “Body Weight” value ([1]; 3 mg/kg i.v. tiw x2 w, day 7) was 22.3 g and the “Body Weight” value ([1]; 3 mg/kg i.v. tiw x2 w, day 9) was 22.4 g. The “Body Weight” value ([1]; 3 mg/kg i.v. tiw x2 w, day 11) was 22.0 g, the “Body Weight” value ([1]; 3 mg/kg i.v. tiw x2 w, day 14) was 22.0 g and the “Body Weight” value ([1]; 10 mg/kg i.v. tiw x2 w, day 0) was 23.1 g. For the same molecule, the “Body Weight” value ([1]; 10 mg/kg i.v. tiw x2 w, day 2) was 21.8 g, the “Body Weight” value ([1]; 10 mg/kg i.v. tiw x2 w, day 4) was 20.8 g and the “Body Weight” value ([1]; 10 mg/kg i.v. tiw x2 w, day 7) was 19.3 g. For the same molecule, the “Body Weight” value ([1]; 10 mg/kg i.v. tiw x2 w, day 9) was 22.0 g, the “Body Weight” value ([1]; 10 mg/kg i.v. tiw x2 w, day 11) was 20.6 g and the “Body Weight” value ([1]; 10 mg/kg i.v. tiw x2 w, day 14) was 22.4 g. For the same molecule, the “effect on body weight (in words)” value ([1]; 10 mg/kg, 3× weekly schedule for two weeks) was “brief body weight loss which is reversible upon discontinuation of treatment”, the IC50 (HT1080 cells; read-out: IC50 with 1 mM bacitracin, 24 hour exposure, + 1 mM bacitracin (PDI inhibitor)) was 7.3 nM and the IC50 (HT1080 cells; read-out: Standard IC50, 24 hour exposure (high MT1 expression), no block) was 5.3 nM. For the same molecule, the IC50 (L540 cells; 72 hour exposure (low/no MT1 expression), no block, read-out: Standard IC50) was 1090 nM, the “Fold shift with bacitracin” value (L540 cells; 72 hour exposure, 1 mM bacitracin vs none) was 2.3 and the IC50 (L540 cells; read-out: IC50 with 1 mM bacitracin, 72 hour exposure, + 1 mM bacitracin) was 2550 nM. For the same molecule, the half-life at 4 μM ([2]; mouse plasma without AEBSF, pH 7.4 at 37° C.) was 24 h, the remaining at 24 h, 4 μM ([2]; mouse plasma without AEBSF, pH 7.4 at 37° C., read-out: % remained after 24 hours incubation) was 50% and the “formation of the MMAE metabolite (release of the toxin)” value ([2]; mouse plasma, in the absence of AEBSF) was “I-1a degradation tracks with the appearance of free MMAE”. The “formation of the MMAE metabolite (release of the toxin)” value ([2]; mouse plasma, in the presence of AEBSF) was “lack of formation of free MMAE”, the half-life at 1 μM ([2]; mouse plasma, 1 μM, pH 7.4 at 37° C.) was 6.4 h and the remaining at 24 h, 1 μM ([2]; mouse plasma, 1 μM, pH 7.4 at 37° C., read-out: % remained after 24 hours incubation) was 57%. The half-life at 4 μM ([2]; with AEBSF (concentration not stated), mouse plasma +AEBSF, pH 7.4 at 37° C.) was over 24 h, the remaining at 24 h, 4 μM ([2]; with AEBSF (concentration not stated), mouse plasma +AEBSF, pH 7.4 at 37° C., read-out: % remained after 24 hours incubation) was 100% and the “effect on body weight (in words)” value [3] was “No dose-related effects on body weight”. For the same molecule, the “effect on body weight (in words)” value ([4]; 1 mg/kg) was “no significant effect on body weight” and the “effect on body weight (in words)” value ([4]; 3 mg/kg) was “without significant effect on body weight”.
